The text below walks through data of publication PMC3913770, “Characterization of New Polyol/H^+ Symporters in Debaryomyces hansenii” (PLoS ONE, 2014).

Data set [1] has as its target T1, DhSgl1 (Debaryomyces hansenii, UniProt Q6BN62).
T1 construct: gene DEHA2E24310g; full-length ORF (626 aa) without stop, C-terminal GFP, plasmid pUG35, in S. cerevisiae YSH 1172 (strain MLY22)
Briefly: initial extracellular alkalinization (H+ symport) in unbuffered yeast cell suspension, Michaelis-Menten fit. The format is cell-based. The settings on record: pH 5, proton symport, one H+ per polyol assumed, maltose-grown S. cerevisiae cells. An excerpt: initial extracellular alkalinization (H+ symport) in unbuffered yeast cell suspension, Michaelis-Menten fit on DhSgl1

The target in data set [2] is T2, DhSyl1 (Debaryomyces hansenii, UniProt B5RT81).
T2 construct: gene DEHA2C05896g; full-length ORF (649 aa) without stop, C-terminal GFP, plasmid pUG35, in S. cerevisiae YSH 1172 (strain MLY9); any CUG codon is read as Leu in the host
T2 sequence (B5RT81 1-649): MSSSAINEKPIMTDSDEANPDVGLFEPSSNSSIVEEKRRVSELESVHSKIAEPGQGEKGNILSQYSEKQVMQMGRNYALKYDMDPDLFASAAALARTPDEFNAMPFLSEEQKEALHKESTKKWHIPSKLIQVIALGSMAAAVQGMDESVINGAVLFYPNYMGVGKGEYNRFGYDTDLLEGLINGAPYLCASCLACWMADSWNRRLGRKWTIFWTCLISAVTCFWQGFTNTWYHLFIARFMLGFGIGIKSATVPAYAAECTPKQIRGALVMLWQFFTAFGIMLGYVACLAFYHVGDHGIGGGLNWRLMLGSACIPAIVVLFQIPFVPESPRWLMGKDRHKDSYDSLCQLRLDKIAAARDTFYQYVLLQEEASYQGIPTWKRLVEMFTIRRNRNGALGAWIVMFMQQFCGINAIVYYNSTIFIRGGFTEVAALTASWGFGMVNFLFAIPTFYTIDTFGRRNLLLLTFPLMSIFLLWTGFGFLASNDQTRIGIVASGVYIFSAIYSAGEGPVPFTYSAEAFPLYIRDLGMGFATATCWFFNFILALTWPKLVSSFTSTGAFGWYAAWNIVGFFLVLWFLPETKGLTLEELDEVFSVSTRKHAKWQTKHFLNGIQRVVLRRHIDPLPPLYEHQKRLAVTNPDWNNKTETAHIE
Briefly: inhibition of [U-14C] sorbitol uptake. The data set is classed as cell-based. The settings on record: 1.5 mM [U-14C] sorbitol, 20 mM mannitol.

Substrate in data set [3]: OC[C@@H](O)[C@@H](O)[C@H](O)[C@H](O)CO
The data set is described as follows: initial extracellular alkalinization (H+ symport) in unbuffered yeast cell suspension, Michaelis-Menten fit. The format is cell-based, Debaryomyces hansenii. The settings on record: pH 5, proton symport, one H+ per polyol assumed, maltose-grown S. cerevisiae cells. The text has this: (§1) initial extracellular alkalinization (H+ symport) in unbuffered yeast cell suspension, Michaelis-Menten fit on DhSyl1

Substrate in data set [4]: OC[C@@H](O)[C@H](O)[C@H](O)[C@@H](O)CO
The data set is described as above. The settings on record: pH 5, proton symport, one H+ per polyol assumed, maltose-grown S. cerevisiae cells. The format is cell-based, Debaryomyces hansenii.
Description: as §1

Substrate in data set [5]: OC[C@@H](O)C(O)[C@H](O)CO
The description is as above. Particulars: pH 5, proton symport, one H+ per polyol assumed, maltose-grown S. cerevisiae cells. The format is cell-based, Debaryomyces hansenii.
Description: as §1

Substrate in data set [6]: OC[C@@H](O)[C@@H](O)[C@H](O)[C@@H](O)CO
Described as above. The format is cell-based, Debaryomyces hansenii. Particulars: pH 5, proton symport, one H+ per polyol assumed, maltose-grown S. cerevisiae cells.
Description: as §1

Substrate in data set [7]: OC[C@@H](O)[C@@H](O)[C@@H](O)CO
The description is as above. The format is cell-based, Debaryomyces hansenii. Particulars: pH 5, proton symport, one H+ per polyol assumed, maltose-grown S. cerevisiae cells.
Description: as §1

Substrate in data set [8]: OC[C@@H](O)[C@@H](O)[C@H](O)[C@H](O)CO
Described as above. The settings on record: pH 5, proton symport, one H+ per polyol assumed, maltose-grown S. cerevisiae cells. The format is cell-based, Debaryomyces hansenii. The text has this:
(§2) initial extracellular alkalinization (H+ symport) in unbuffered yeast cell suspension, Michaelis-Menten fit on DhSyl2
This is another data set of the same source.

Substrate in data set [9]: OC[C@@H](O)C(O)[C@H](O)CO
The data set is described as above. The data set is classed as cell-based, Debaryomyces hansenii. Particulars: pH 5, proton symport, one H+ per polyol assumed, maltose-grown S. cerevisiae cells.
Description: as §2
This is another data set of the same source.

Substrate in data set [10]: OC[C@@H](O)[C@@H](O)[C@H](O)[C@@H](O)CO
Described as above. The format is cell-based, Debaryomyces hansenii. Particulars: pH 5, proton symport, one H+ per polyol assumed, maltose-grown S. cerevisiae cells.
Description: as §2
The source holds these as a separate data set.

Substrate in data set [11]: OC[C@@H](O)[C@@H](O)[C@@H](O)CO
Described as above. The data set is classed as cell-based, Debaryomyces hansenii. The settings on record: pH 5, proton symport, one H+ per polyol assumed, maltose-grown S. cerevisiae cells.
Description: as §2
This is another data set of the same source.

Substrate in data set [12]: O[C@H]1[C@H](O)[C@H](O)[C@@H](O)[C@H](O)[C@H]1O
The data set is described as above. The data set is classed as cell-based, Debaryomyces hansenii. The settings on record: pH 5, proton symport, one H+ per polyol assumed, maltose-grown S. cerevisiae cells. An excerpt:
initial extracellular alkalinization (H+ symport) in unbuffered yeast cell suspension, Michaelis-Menten fit on DhSyi1

T1 sequence (Q6BN62 entry or part of it): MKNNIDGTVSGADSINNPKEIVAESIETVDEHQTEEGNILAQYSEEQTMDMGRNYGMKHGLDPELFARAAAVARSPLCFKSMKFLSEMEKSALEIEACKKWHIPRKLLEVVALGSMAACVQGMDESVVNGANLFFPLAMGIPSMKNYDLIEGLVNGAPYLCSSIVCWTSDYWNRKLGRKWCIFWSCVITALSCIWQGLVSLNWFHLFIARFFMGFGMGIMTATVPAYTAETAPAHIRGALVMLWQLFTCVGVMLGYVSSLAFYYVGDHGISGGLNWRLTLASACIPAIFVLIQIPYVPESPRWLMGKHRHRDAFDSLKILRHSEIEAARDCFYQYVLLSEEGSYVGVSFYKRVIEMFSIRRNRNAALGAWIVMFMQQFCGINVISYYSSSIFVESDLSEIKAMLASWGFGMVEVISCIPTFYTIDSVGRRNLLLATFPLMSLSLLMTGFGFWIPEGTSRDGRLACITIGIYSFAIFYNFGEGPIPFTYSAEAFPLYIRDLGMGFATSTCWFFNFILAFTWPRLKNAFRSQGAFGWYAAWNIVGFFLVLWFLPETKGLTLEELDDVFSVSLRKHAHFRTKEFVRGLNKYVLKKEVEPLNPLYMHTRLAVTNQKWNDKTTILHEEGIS

The term Km denotes the substrate concentration at which the rate is half of its maximum. Turning to `OC[C@@H](O)[C@H](O)[C@H](O)[C@@H](O)CO` [D-Galactitol], in data set [1], the Km amounted to 1.93 ± 0.77 mM.

`OC[C@@H](O)[C@@H](O)[C@H](O)[C@H](O)CO` [D-Mannitol]: in data set [2], the “% reduction of sorbitol uptake at 20 mM” value is 70%.

B1: DhSyl1 (Debaryomyces hansenii CBS767) (protein)
chain: MSSSAINEKPIMTDSDEANPDVGLFEPSSNSSIVEEKRRVSELESVHSKIAEPGQGEKGNILSQYSEKQVMQMGRNYALKYDMDPDLFASAAALARTPDEFNAMPFLSEEQKEALHKESTKKWHIPSKLIQVIALGSMAAAVQGMDESVINGAVLFYPNYMGVGKGEYNRFGYDTDLLEGLINGAPYLCASCLACWMADSWNRRLGRKWTIFWTCLISAVTCFWQGFTNTWYHLFIARFMLGFGIGIKSATVPAYAAECTPKQIRGALVMLWQFFTAFGIMLGYVACLAFYHVGDHGIGGGLNWRLMLGSACIPAIVVLFQIPFVPESPRWLMGKDRHKDSYDSLCQLRLDKIAAARDTFYQYVLLQEEASYQGIPTWKRLVEMFTIRRNRNGALGAWIVMFMQQFCGINAIVYYNSTIFIRGGFTEVAALTASWGFGMVNFLFAIPTFYTIDTFGRRNLLLLTFPLMSIFLLWTGFGFLASNDQTRIGIVASGVYIFSAIYSAGEGPVPFTYSAEAFPLYIRDLGMGFATATCWFFNFILALTWPKLVSSFTSTGAFGWYAAWNIVGFFLVLWFLPETKGLTLEELDEVFSVSTRKHAKWQTKHFLNGIQRVVLRRHIDPLPPLYEHQKRLAVTNPDWNNKTETAHIE
notes: full-length ORF (649 aa) without stop, C-terminal GFP, plasmid pUG35, in S. cerevisiae YSH 1172 (strain MLY9); any CUG codon is read as Leu in the host
For the molecule B1, the Km stood at 0.30 ± 0.09 mM in [3]; 12.33 ± 1.50 mM in data set [4]; 0.96 ± 0.32 mM in [5]; 11.51 ± 2.50 mM in data set [6]; 11.44 ± 4.46 mM in data set [7].

B2: DhSyl2 (Debaryomyces hansenii CBS767) (protein)
chain: MPSETNPEKPVALRSDNPHEENGLFEHSSNSSFNEKRRVSELESIHSKIAEPGQGEKGNILSQYSEKQVMQMGRNYALKYDLDPDLFARAAALARTPDDFNAMPFITEEEKQALHKEHTKKWHIPSKLIQVIALGSMAAAVQGMDESVINGALLFYPNYMGVGKGEYNRFGYDTDMIEGLINGAPYLCASCIACWMSDLWNRHLGRKWTIFWTCLISALTCFWQGFTNTWYHLFIARFMLGFGIGIKSATVPAYAAECTPKQIRGALVMLWQFFTAVGIMFGYVACLAFYHVGDHGIGGGLNWRLMLGSACIPAIIVLFQIPFVPESPRWLMGKDRHKDSYDSLCQLRLDKIAAARDTFYQYVLLQEEASYQGIPTWKRLVEMFTIRRNRNGALGAWIVMFMQQFCGINAIVYYNSTIFIQGGFTEVDALTASWGFGMVNFLFAIPTFYTIDTFGRRNLLLFTFPLMALFLIWTGLGFVAEDGTKTQTGIVASGVYIFSAIYSAGEGPVPFTYSAEAFPLYIRDIGMGFATATCWFFNFILALTWPKLVSSFGRTGAFMWYAAWNIAGFFMVLWFLPETKGLTLEELDEVFSVSTRKHAIYQTKSILNSFQRVVLRRHIDPLPPLYEHQKRLAVTNPDWNNKTETAHIE
notes: full-length ORF (649 aa) without stop, C-terminal GFP, plasmid pUG35, in S. cerevisiae YSH 1172 (strain MLY12); any CUG codon is read as Leu in the host
As to B2, the Km was found to be 0.93 ± 0.16 mM in data set [8], 0.46 ± 0.21 mM in data set [9], 13.82 ± 2.12 mM in data set [10] and 18.31 ± 3.23 mM in data set [11].

B3: DhSyi1 (Debaryomyces hansenii CBS767) (protein)
chain: MATEDKELGVVITDVSKLSEKIEEQNNIISKGGSVDDYLYEKRPWWKVNYLVRLNFCIFLITLSSTNNGYDGSMLNGLQSVSYWPEKMGNPQGSVLGALSNGNVFGVVLSFVCASWLADKFGRWRCIFVGQTITILGSILQGVSTNYGFFLASRIILGFGVGIAGVSSPSLISELAYPTHRATATTFYNVCWYLGAIIAAWVTYGTLNIENDYSWRIPSYLQAALPCLQIAFFWMVPESPRYLINKDRISDAEKVLRKFHAGGETHERANDLVSFEIEEIQAALEIEKLSSNSRYSDFITMPTFRKRLFLAVFVAVIMQLSGNGLVSYYLNKVLNSIGITDPHEQLKINGCLMVYNLVISSVVASVAGRFKRRSMFLICTILMLVFYVIWTILSAINQQRNFEQKSLGNGVIAMIFFYYLAYDIGANGLPFLYITEIMPYSHRAKGMNIFTVSQNIIIIFNGFVNPIAMDAIEWKYYIVYCCILAVEVITVLFTFVETSAYTLEEVAKVFGDDPGQTLIHLSSAPPKPEVGHIETV
notes: full-length ORF (536 aa) without stop, C-terminal GFP, plasmid pUG35, in S. cerevisiae YSH 1172 (strain MLY23); any CUG codon is read as Leu in the host
As for B3, in [12], the Km was 18.64 ± 9.23 mM.
